Results from patent US20190092846A1 (Novartis, published 2019).
Changes are numbered by the printed parent chain. Blank lines part the entries; values can stand above or below the binder they belong to.

Key:
human recombinant TGF-β2 [1] = target: T1, human recombinant TGF-β2 (human, UniProt P09858 303-414 (pig entry)); assay: ratio of the KD values of Table 4
T1 construct: also called hTGF-b2; hTGFbeta-2
T1 sequence: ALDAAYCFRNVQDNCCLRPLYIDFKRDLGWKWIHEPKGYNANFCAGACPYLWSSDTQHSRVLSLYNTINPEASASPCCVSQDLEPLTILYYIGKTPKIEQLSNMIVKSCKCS

human recombinant TGF-β2 [2] = target: T1, human recombinant TGF-β2; assay: BiaCORE (surface plasmon resonance)
mouse recombinant TGF-β2 [3] = target: T2, mouse recombinant TGF-β2 (mouse, UniProt P27090 303-414); assay: BiaCORE (surface plasmon resonance)
T2 construct: mature; also called mTGF-b2; Mouse TGF-β2
T2 sequence (looked up): T1 sequence with S59T, R60K, K94N

human TGF-β3 [4] = target: T3, human TGF-β3 (human, UniProt P10600 301-412); assay: BiaCORE (surface plasmon resonance)
T3 construct: also called hTGF-b3; hTGFbeta-3
T3 sequence: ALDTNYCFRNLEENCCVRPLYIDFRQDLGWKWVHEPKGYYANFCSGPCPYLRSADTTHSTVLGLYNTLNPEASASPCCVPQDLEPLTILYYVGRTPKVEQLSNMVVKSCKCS

human TGF-β1 [5] = target: T4, human TGF-β1 (human, UniProt P01137 279-390); assay: not named in the sentence (it points to Table 4)
T4 construct: also called TGFbeta-1; TGFbeta 1
T4 sequence (P01137 279-390 limits assumed): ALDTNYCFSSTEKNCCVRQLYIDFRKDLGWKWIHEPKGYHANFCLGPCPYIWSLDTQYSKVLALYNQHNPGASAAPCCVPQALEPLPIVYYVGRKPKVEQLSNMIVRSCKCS

human recombinant TGF-β2 [6] = target: T1, human recombinant TGF-β2; assay: ratio with the conservative KD of 100 fM
human recombinant TGF-β2 [7] = target: T1, human recombinant TGF-β2; assay: conservative reading of the KD value of Table 4; conservative interpretation of the Table 4 KD, not a new measurement
human recombinant TGF-β2 [8] = target: T1, human recombinant TGF-β2; assay: cell-based or functional assay
human TGF-β1 [9] = target: T4, human TGF-β1; assay: cell-based or functional assay
mouse recombinant TGF-β2 [10] = target: T2, mouse recombinant TGF-β2; assay: cell-based or functional assay
human TGF-β3 [11] = target: T3, human TGF-β3; assay: cell-based or functional assay
human recombinant TGF-β2 [12] = target: T1, human recombinant TGF-β2; assay: conservative reading of the KD value of Table 4
human TGF-β1 [13] = target: T4, human TGF-β1; assay: cell-based or functional assay; remark: listed apart in the source
[14] = target: T5, human TGFβ-2 (residues 303-414, SEQ ID NO: 122) (human, UniProt P61812 303-414); assay: X-ray crystal structure of the complex
T5 construct: Construct of the crystal structure with the MOR14797 Fab; also called TGFβ-2 dimer (chains A and B)
T5 sequence: T1 sequence
Procedure: As detailed below, the individual components of the complex were produced using separate expression systems and were combined to generate the purified complex. X-ray crystallography was then employed to generate diffraction data for TGFβ-2 bound to the MOR14797 Fab, elucidating the antigen-binding site.
The TGFβ-2-MOR14797 complex was concentrated to 20 mg/ml, followed by centrifugation at 20,000×g for 10 min prior to dispensing crystallization screens. Crystals were grown at 20° C. using a sitting drop vapor diffusion setup. 0.1 μl of the TGFβ-2-MOR14797 complex was mixed with 0.1 μl of a reservoir solution containing 0.1 M HEPES (pH 7.5) and 70% (v/v) MPD, and the drop was equilibrated against 45 μl of the reservoir solution. Crystals were flash-cooled directly in liquid nitrogen and were sent to the Advanced Photon Source (Argonne National Laboratory, USA) for collection of diffraction data at beamline 17-ID. Datasets were processed using autoPROC (version 1.1.6, Global Phasing Ltd.) to a resolution of 2.4 Å in space group P2₁2₁2₁ with cell dimensions a=77.2 Å, b=122.1 Å, c=130.1 Å, α=90°, β=90°, and γ=90°. […] The Rwork and Rfree values are 17.5% and 23.0%, respectively. The RMSD values for the bond lengths and angles were 0.008 Å and 1.054°.

B1: MOR14799 (antibody, human IgG1, lambda, V domains shown)
VH: QVQLVQSGAEVKKPGESLKISCKGSGYSFTRYYVAWVRQMPGKGLEWMGWIDPGQSNTRYSPSFQGQVTISADKSISTAYLQWSSLKASDTAMYYCARMLAWGWFDYWGQGTLVTVSS
VL: SYELTQPLSVSVALGQTARITCSGDNLGGYYAHWYQQKPGQAPVLVIYDKSDRPSGIPERFSGSNSGNTATLTISRAQAGDEADYYCASYDSSLMMVFGGGTKLTVLG
fold lower KD for TGFβ2 than for TGFbeta 3 (human recombinant TGF-β2 [1]): > 18000 fold
Kd (human recombinant TGF-β2 [2]): 0.00108 pM
Kd (mouse recombinant TGF-β2 [3]): 0.00277 pM
Kd (human TGF-β3 [4]): 0.0199 nM
binding result (human TGF-β1 [5]): no binding
fold lower KD for TGFβ2 than for TGFbeta 3 (human recombinant TGF-β2 [6]): 200 fold
Kd (human recombinant TGF-β2 [7]): ≤ 0.0001 nM
CK (IC 50 [pM]), Skeletal Muscle Cell Differentiation Assay (Creatine Kinase) (human recombinant TGF-β2 [8]): 1050 pM
RGA (CAGA-12 luc/Smad-2/3 RGA; IC 50 [pM]) (human recombinant TGF-β2 [8]): 78 pM
RGA (CAGA-12 luc/Smad-2/3 RGA; IC 50 [pM]) (human TGF-β1 [9]): > 100000 pM
CK (IC 50 [pM]), Skeletal Muscle Cell Differentiation Assay (Creatine Kinase) (mouse recombinant TGF-β2 [10]): 909 pM
RGA (CAGA-12 luc/Smad-2/3 RGA; IC 50 [pM]) (mouse recombinant TGF-β2 [10]): 138 pM
RGA (CAGA-12 luc/Smad-2/3 RGA; IC 50 [pM]) (human TGF-β3 [11]): > 100000 pM

B4: MOR14809 (antibody, human IgG1, lambda, V domains shown)
VH: QVQLVQSGAEVKKPGESLKISCKGSGYSFTRYWIAWVRQMPGKGLEWMGIIDPGTSDTRYSPSFQGQVTISADKSISTAYLQWSSLKASDTAMYYCARIDKSLILHSAFDYWGQGTLVTVSS
VL: SYELTQPLSVSVALGQTARITCSGDNLGGYYAYWYQQKPGQAPVLVIYETNNRPSGIPERFSGSNSGNTATLTISRAQAGDEADYYCASTTQDYLVFVFGGGTKLTVLG
Kd (human recombinant TGF-β2 [2]): 0.0524 pM
Kd (mouse recombinant TGF-β2 [3]): 0.00236 pM
Kd (human TGF-β3 [4]): > 1000 nM
binding result (human TGF-β1 [5]): no binding
Kd (human recombinant TGF-β2 [12]): ≤ 0.0001 nM
CK (IC 50 [pM]), Skeletal Muscle Cell Differentiation Assay (Creatine Kinase) (human recombinant TGF-β2 [8]): 220 pM
RGA (CAGA-12 luc/Smad-2/3 RGA; IC 50 [pM]) (human recombinant TGF-β2 [8]): 94 pM
RGA (CAGA-12 luc/Smad-2/3 RGA; IC 50 [pM]) (human TGF-β1 [9]): > 100000 pM
CK (IC 50 [pM]), Skeletal Muscle Cell Differentiation Assay (Creatine Kinase) (mouse recombinant TGF-β2 [10]): 800 pM
RGA (CAGA-12 luc/Smad-2/3 RGA; IC 50 [pM]) (mouse recombinant TGF-β2 [10]): 598 pM
RGA (CAGA-12 luc/Smad-2/3 RGA; IC 50 [pM]) (human TGF-β3 [11]): > 100000 pM

B5: MOR14787 (antibody, human IgG1, kappa, V domains shown)
VH: QVQLVQSGAEVKKPGSSVKVSCKASGGTFSSYAISWVRQAPGQGLEWMGVIVPKWGHPQYAQKFQGRVTITADESTSTAYMELSSLRSEDTAVYYCAREGDFVVLVLTEHYMGGFDVWGQGTLVTVSS
VL: DIQMTQSPSSLSASVGDRVTITCRASQSIDEYLNWYQQKPGKAPKLLIYAGSNLQSGVPSRFSGSGSGTDFTLTISSLQPEDFATYYCLQGYSYPRTFGQGTKVEIKR
Kd (mouse recombinant TGF-β2 [3]): 1.89 pM
Kd (human TGF-β3 [4]): > 1000 nM
binding result (human TGF-β1 [5]): no binding
CK (IC 50 [pM]), Skeletal Muscle Cell Differentiation Assay (Creatine Kinase) (human recombinant TGF-β2 [8]): 366 pM
RGA (CAGA-12 luc/Smad-2/3 RGA; IC 50 [pM]) (human recombinant TGF-β2 [8]): 2.8 pM
RGA (CAGA-12 luc/Smad-2/3 RGA; IC 50 [pM]) (human TGF-β1 [9]): > 100000 pM
CK (IC 50 [pM]), Skeletal Muscle Cell Differentiation Assay (Creatine Kinase) (mouse recombinant TGF-β2 [10]): 3000 pM
RGA (CAGA-12 luc/Smad-2/3 RGA; IC 50 [pM]) (mouse recombinant TGF-β2 [10]): > 100000 pM
RGA (CAGA-12 luc/Smad-2/3 RGA; IC 50 [pM]) (human TGF-β3 [11]): > 100000 pM

B8: MOR14797 Fab (Fab, V domains shown)
VH: QVTLRESGPALVKPTQTLTLTCTFSGFSLSTSGMGVGWIRQPPGKALEWLAHIYWNDDKSYSTSLKTRLTISKDTSKNQVVLTMTNMDPVDTATYYCARDFYYSGYFDSWGQGTLVTVSS
VL: DIQMTQSPSSLSASVGDRVTITCRASQDISNYLNWYQQKPGKAPKLLIFGASSLQSGVPSRFSGSGSGTDFTLTISSLQPEDFATYYCQQTNTMNTFGQGTKVEIKR
notes: also called Fab fragment of MOR14797
binding result [14]: binds

Results, then the binder that gave them:

Kd (mouse recombinant TGF-β2 [3]): 0.00109 pM
Kd (human TGF-β3 [4]): > 1000 nM
binding result (human TGF-β1 [5]): no binding
Kd (human recombinant TGF-β2 [12]): ≤ 0.0001 nM
CK (IC 50 [pM]), Skeletal Muscle Cell Differentiation Assay (Creatine Kinase) (human recombinant TGF-β2 [8]): 491 pM
RGA (CAGA-12 luc/Smad-2/3 RGA; IC 50 [pM]) (human recombinant TGF-β2 [8]): 29 pM
RGA (CAGA-12 luc/Smad-2/3 RGA; IC 50 [pM]) (human TGF-β1 [9]): > 100000 pM
CK (IC 50 [pM]), Skeletal Muscle Cell Differentiation Assay (Creatine Kinase) (mouse recombinant TGF-β2 [10]): 1200 pM
RGA (CAGA-12 luc/Smad-2/3 RGA; IC 50 [pM]) (mouse recombinant TGF-β2 [10]): 123 pM
RGA (CAGA-12 luc/Smad-2/3 RGA; IC 50 [pM]) (human TGF-β3 [11]): > 100000 pM
B2: MOR14800 (antibody, human IgG1, lambda, V domains shown)
VH: B1 VH
VL: B1 VL with K50T

fold lower KD for TGFbeta-2 than for TGFbeta-3 (human recombinant TGF-β2 [1]): 73 fold
Kd (human recombinant TGF-β2 [2]): 0.97 pM
Kd (human TGF-β3 [4]): 0.0705 nM
binding result (human TGF-β1 [5]): no binding
CK (IC 50 [pM]), Skeletal Muscle Cell Differentiation Assay (Creatine Kinase) (human recombinant TGF-β2 [8]): 315 pM
RGA (CAGA-12 luc/Smad-2/3 RGA; IC 50 [pM]) (human recombinant TGF-β2 [8]): 106 pM
RGA (CAGA-12 luc/Smad-2/3 RGA; IC 50 [pM]) (human TGF-β1 [9]): > 100000 pM
CK (IC 50 [pM]), Skeletal Muscle Cell Differentiation Assay (Creatine Kinase) (mouse recombinant TGF-β2 [10]): 629 pM
RGA (CAGA-12 luc/Smad-2/3 RGA; IC 50 [pM]) (mouse recombinant TGF-β2 [10]): 248 pM
RGA (CAGA-12 luc/Smad-2/3 RGA; IC 50 [pM]) (human TGF-β3 [11]): > 100000 pM
B3: MOR14805 (antibody, human IgG1, lambda, V domains shown)
VH: B1 VH with Q55T
VL: B1 VL

fold lower KD for TGFβ2 than for TGFbeta 3 (human recombinant TGF-β2 [1]): 17 fold
Kd (human recombinant TGF-β2 [2]): 117 pM
Kd (human TGF-β3 [4]): 0.02 nM
IC50 (read off the curve) (CAGA-12 luciferase reporter gene assay, HEK293T/17) (human TGF-β1 [13]): ~0.5 nM
RGA (CAGA-12 luc/Smad-2/3 RGA; IC 50 [pM]) (human recombinant TGF-β2 [8]): 4370 pM
RGA (CAGA-12 luc/Smad-2/3 RGA; IC 50 [pM]) (human TGF-β1 [9]): 108 pM
RGA (CAGA-12 luc/Smad-2/3 RGA; IC 50 [pM]) (human TGF-β3 [11]): 32 pM
B6: 1D11 (antibody, V domains shown)
VH: QVQLQQSGPELVRPGASVKLSCKASGYIFITYWMNWVKQRPGQGLEWIGQIFPASGSTNYNEMFEGKATLTVDTSSSTAYMQLSSLTSEDSAVYYCARGDGNYALDAMDYWGQGTSVTVSS
VL: DIVLTQSPASLAVSLGQRATISCRASESVDSYGNSFMHWYQQKSGQPPKLLIYLASNLESGVPARFSGSGSRTDFTLTIDPVEADDAATYYCQQNNEDPLTFGAGTKLEIK

fold lower KD for TGFbeta-2 than for TGFbeta-3 (human recombinant TGF-β2 [1]): 6e+06 fold
Kd (human recombinant TGF-β2 [2]): 0.00446 pM
Kd (mouse recombinant TGF-β2 [3]): 0.633 pM
Kd (human TGF-β3 [4]): 27.4 nM
binding result (human TGF-β1 [5]): no binding
Kd (human recombinant TGF-β2 [12]): ≤ 0.0001 nM
fold lower KD for TGFβ2 than for TGFbeta-3 (human recombinant TGF-β2 [6]): 270000 fold
CK (IC 50 [pM]), Skeletal Muscle Cell Differentiation Assay (Creatine Kinase) (human recombinant TGF-β2 [8]): 105 pM
RGA (CAGA-12 luc/Smad-2/3 RGA; IC 50 [pM]) (human recombinant TGF-β2 [8]): 8.4 pM
RGA (CAGA-12 luc/Smad-2/3 RGA; IC 50 [pM]) (human TGF-β1 [9]): > 100000 pM
CK (IC 50 [pM]), Skeletal Muscle Cell Differentiation Assay (Creatine Kinase) (mouse recombinant TGF-β2 [10]): 1500 pM
RGA (CAGA-12 luc/Smad-2/3 RGA; IC 50 [pM]) (mouse recombinant TGF-β2 [10]): 329 pM
RGA (CAGA-12 luc/Smad-2/3 RGA; IC 50 [pM]) (human TGF-β3 [11]): > 100000 pM
B7: MOR14797 (antibody, human IgG1, kappa, V domains shown)
VH: B8 VH
VL: B8 VL
notes: (no LALA)
